Results published in patent US20260243776A1 (LEIBNIZ INSTITUT F R ALTERNSFORSCHUNG FRITZ LIPMANN …, published 2026).

Tests used:
[1] = biological target: BRD2 (human, UniProt P25440 1-801, limits assumed); experiment: proximity biotinylation in HEK293T cells treated with the PROTAC KB02-JQ1 (10 uM), with or without MG132; recruitment induced by the small molecule
Procedure: (§1) The expression of BirA* or miniTurbo fusion proteins were induced by a single addition of tetracycline stock (solved in ethanol) exposing the cells to its final concentration of 1 μg/μl in total for 4 days. 2 hours (miniTurbo lines) or 24 hours (BirA* lines) prior to cell harvesting, 50 μM biotin was added to the culture media. […] Upon treatment, cells were washed 3×times with PBS and harvested by trypsinization. For each sample, a pellet corresponding to 20 million cells was collected and snap-frozen in liquid nitrogen.

[2] = biological target: BRD3 (human, UniProt Q15059 2-726, limits assumed); experiment: as above
Chain of BRD3 (Q15059 2-726 limits assumed): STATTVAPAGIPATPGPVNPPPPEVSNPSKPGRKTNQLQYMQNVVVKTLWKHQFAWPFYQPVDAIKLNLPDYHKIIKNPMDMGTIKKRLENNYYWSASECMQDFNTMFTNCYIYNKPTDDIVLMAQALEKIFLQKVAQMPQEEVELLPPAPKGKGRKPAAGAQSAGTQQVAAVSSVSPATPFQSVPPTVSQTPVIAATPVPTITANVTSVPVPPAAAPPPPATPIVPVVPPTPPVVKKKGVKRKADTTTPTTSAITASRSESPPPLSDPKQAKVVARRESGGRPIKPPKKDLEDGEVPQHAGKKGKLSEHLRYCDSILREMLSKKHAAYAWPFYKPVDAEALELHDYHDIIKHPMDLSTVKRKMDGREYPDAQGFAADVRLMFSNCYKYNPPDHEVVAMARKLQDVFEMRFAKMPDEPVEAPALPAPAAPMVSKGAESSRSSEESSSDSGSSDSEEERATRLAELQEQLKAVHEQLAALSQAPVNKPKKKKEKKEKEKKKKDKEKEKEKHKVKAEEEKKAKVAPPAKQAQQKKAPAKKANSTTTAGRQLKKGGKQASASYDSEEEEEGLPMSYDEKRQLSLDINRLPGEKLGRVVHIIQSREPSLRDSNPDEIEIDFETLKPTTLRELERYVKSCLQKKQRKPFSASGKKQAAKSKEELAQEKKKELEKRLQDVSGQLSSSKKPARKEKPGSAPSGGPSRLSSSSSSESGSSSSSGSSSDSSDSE
Procedure: as §1

Chain of BRD2 (P25440 whole entry): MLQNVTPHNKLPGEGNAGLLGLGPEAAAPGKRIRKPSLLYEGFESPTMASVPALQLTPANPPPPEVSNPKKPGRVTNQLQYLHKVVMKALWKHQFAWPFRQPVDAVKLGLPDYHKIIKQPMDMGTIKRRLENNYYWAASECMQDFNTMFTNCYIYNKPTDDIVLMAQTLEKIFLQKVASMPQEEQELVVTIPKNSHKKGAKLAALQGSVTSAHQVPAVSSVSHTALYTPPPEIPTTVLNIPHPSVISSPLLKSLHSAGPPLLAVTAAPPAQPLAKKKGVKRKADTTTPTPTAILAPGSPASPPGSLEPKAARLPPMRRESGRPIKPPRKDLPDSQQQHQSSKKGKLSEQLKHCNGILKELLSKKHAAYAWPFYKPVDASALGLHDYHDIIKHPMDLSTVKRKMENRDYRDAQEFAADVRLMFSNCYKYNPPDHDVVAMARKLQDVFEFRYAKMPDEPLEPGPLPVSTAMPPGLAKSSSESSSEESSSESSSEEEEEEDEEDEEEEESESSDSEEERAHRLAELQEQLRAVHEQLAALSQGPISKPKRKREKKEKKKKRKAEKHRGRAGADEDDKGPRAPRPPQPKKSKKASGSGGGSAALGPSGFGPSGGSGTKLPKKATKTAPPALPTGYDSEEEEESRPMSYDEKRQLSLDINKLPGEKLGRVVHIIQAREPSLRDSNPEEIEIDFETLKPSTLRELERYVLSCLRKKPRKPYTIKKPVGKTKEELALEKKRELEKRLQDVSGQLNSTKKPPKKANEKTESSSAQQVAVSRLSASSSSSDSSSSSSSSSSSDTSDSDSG

binding result [1]: binds | binding result [2]: binds
B1: PSMA4-miniTurbo-FLAG (other)
chain: MSRRYDSRTTIFSPEGRLYQVEYAMEAIGHAGTCLGILANDGVLLAAERRNIHKLLDEVFFSEKIYKLNEDMACSVAGITSDANVLTNELRLIAQRYLLQYQEPIPCEQLVTALCDIKQAYTQFGGKRPFGVSLLYIGWDKHYGFQLYQSDPSGNYGGWKATCIGNNSAAAVSMLKQDYKEGEMTLKSALALAIKVLNKTMDVSKLSAEKVEIATLTRENGKTVIRVLKQKEVEQLIKKHEEEEAKAEREKKEKEQKEKDKYPTFLYKVVDSRMASIPLLNAKQILGQLDGGSVAVLPVVDSTNQYLLDRIGELKSGDACIAEYQQAGRGSRGRKWFSPFGANLYLSMFWRLKRGPAAIGLGPVIGIVMAEALRKLGADKVRVKWPNDLYLQDRKLAGILVELAGITGDAAQIVIGAGINVAMRRVEESVVNQGWITLQEAGINLDRNTLAAMLIRELRAALELFEQEGLAPYLSRWEKLDNFINRPVKLIIGDKEIFGISRGIDKQGALLLEQDGVIKPWMGGEISLRSAEKLQDDYKDDDDK
notes: also called A4-mT; PSMA4_miniTurboID
